From US12281147

Tests used:
[1] = molecular target: human interleukin 21 receptor (IL-21R) (human) (UniProt Q9HBE5); assay: AlphaSeq yeast mating, pH 7 media
[2] = molecular target: human interleukin 21 receptor (IL-21R) (human) (UniProt Q9HBE5); assay: AlphaSeq yeast mating, unbuffered media
[3] = molecular target: human interleukin 21 receptor (IL-21R) (human) (UniProt Q9HBE5); assay: AlphaSeq yeast mating, pH 6 media
[4] = molecular target: human interleukin 21 receptor (IL-21R) (human) (UniProt Q9HBE5); assay: AlphaSeq yeast mating, pH 5 media
[5] = molecular target: wild-type human IL-21R (human) (UniProt Q9HBE5); assay: AlphaSeq yeast mating assay, pH 5 media
[6] = molecular target: wild-type human IL-21R (human) (UniProt Q9HBE5); assay: AlphaSeq yeast mating assay, unbuffered media
[7] = molecular target: wild-type human IL-21R (human) (UniProt Q9HBE5); assay: AlphaSeq yeast mating assay, pH 6 media
[8] = molecular target: recombinant human IL-21R His tag (Acro Biosystems) (human) (UniProt Q9HBE5); assay: BLI

Row | Substance | Kd [1] [nM] | Kd [2] [nM] | Kd [3] [nM] | Kd [4] [nM] | further results
1 | IL-21_D33A (from UniProt Q9HBE4 32-152) (ligand) | 83 | – | – | – | –
2 | IL-21_D33N (from UniProt Q9HBE4 32-152) (ligand) | 45 | 14000 | 27 | 120 | –
3 | IL-21_D33Q (from UniProt Q9HBE4 32-152) (ligand) | – | – | – | – | Kd [5]: 84 nM; Kd [6]: 7500 nM; Kd [7]: 21 nM
4 | IL-21_D33S (from UniProt Q9HBE4 32-152) (ligand) | 27 | – | – | 82 | –
5 | IL-21_D44N (from UniProt Q9HBE4 32-152) (ligand) | – | 60000 | 92 | 1200 | –
6 | IL-21_E59S (from UniProt Q9HBE4 32-152) (ligand) | – | – | – | – | Kd [5]: 41 nM; Kd [7]: 16 nM
7 | IL-21_E68R (from UniProt Q9HBE4 32-152) (ligand) | – | – | – | – | Kd [5]: 40 nM; Kd [6]: 6300 nM; Kd [7]: 16 nM
8 | IL-21_E72I (from UniProt Q9HBE4 32-152) (ligand) | – | – | – | – | Kd [6]: 4700 nM; Kd [7]: 15 nM
9 | IL-21_E72S (from UniProt Q9HBE4 32-152) (ligand) | 340 | – | 140 | 530 | –
10 | IL-21_H118R (from UniProt Q9HBE4 32-152) (ligand) | 260 | 11000 | 950 | 20000 | –
11 | IL-21_I37Q (from UniProt Q9HBE4 32-152) (ligand) | 140 | – | 35 | 250 | –
12 | IL-21_I43M (from UniProt Q9HBE4 32-152) (ligand) | – | – | – | – | Kd [5]: 110 nM; Kd [6]: 3500 nM; Kd [7]: 27 nM
13 | IL-21_I45A (from UniProt Q9HBE4 32-152) (ligand) | – | 8400 | 25 | – | –
14 | IL-21_I95T (from UniProt Q9HBE4 32-152) (ligand) | 190 | 34000 | 550 | 9800 | –
15 | IL-21_L61I (from UniProt Q9HBE4 32-152) (ligand) | 83 | – | 37 | 370 | –
16 | IL-21_L120H (from UniProt Q9HBE4 32-152) (ligand) | – | – | – | 34 | –
17 | IL-21_L120K (from UniProt Q9HBE4 32-152) (ligand) | 46 | – | 25 | 47 | –
18 | IL-21_L152H (from UniProt Q9HBE4 32-151) (ligand) | – | – | – | – | Kd [5]: 26 nM; Kd [6]: 4400 nM; Kd [7]: 12 nM
19 | IL-21_M36T (from UniProt Q9HBE4 32-152) (ligand) | – | – | – | – | Kd [5]: 110 nM; Kd [6]: 3100 nM
20 | IL-21_N51P (from UniProt Q9HBE4 32-152) (ligand) | 47 | 8500 | 24 | 160 | –
21 | IL-21_N54K (from UniProt Q9HBE4 32-152) (ligand) | – | – | – | – | Kd [5]: 190 nM; Kd [6]: 8000 nM
22 | IL-21_N70H (from UniProt Q9HBE4 32-152) (ligand) | – | – | – | – | Kd [6]: 4400 nM; Kd [7]: 20 nM
23 | IL-21_N88K (from UniProt Q9HBE4 32-152) (ligand) | 140 | 21000 | 43 | 170 | –
24 | IL-21_P107Y (from UniProt Q9HBE4 32-152) (ligand) | – | – | – | – | Kd [5]: 120 nM; Kd [6]: 6500 nM; Kd [7]: 58 nM
25 | IL-21_Q145H (from UniProt Q9HBE4 32-152) (ligand) | – | 32000 | 54 | 1000 | –
26 | IL-21_Q150R (from UniProt Q9HBE4 32-152) (ligand) | 94 | 14000 | 50 | – | –
27 | IL-21_R34G (from UniProt Q9HBE4 32-152) (ligand) | – | 9900 | 150 | 6400 | –

Row | Substance | Kd [1] [nM] | Kd [2] [nM] | Kd [3] [nM] | Kd [4] [nM] | further results
28 | IL-21_R34H (from UniProt Q9HBE4 32-152) (ligand) | 200 | 10000 | – | – | –
29 | IL-21_R34K (from UniProt Q9HBE4 32-152) (ligand) | – | 14000 | 47 | 390 | –
30 | IL-21_R34W (from UniProt Q9HBE4 32-152) (ligand) | 190 | 20000 | 96 | – | –
31 | IL-21_R34Y (from UniProt Q9HBE4 32-152) (ligand) | – | – | – | – | Kd [5]: 6700 nM; Kd [6]: 3400 nM; Kd [7]: 350 nM
32 | IL-21_R139S (from UniProt Q9HBE4 32-152) (ligand) | – | – | – | – | Kd [5]: 81 nM; Kd [6]: 3000 nM
33 | IL-21_S74N (from UniProt Q9HBE4 32-152) (ligand) | 410 | 32000 | – | 48000 | –
34 | IL-21_S77K (from UniProt Q9HBE4 32-152) (ligand) | 170 | 14000 | – | 190 | –
35 | IL-21_S99H (from UniProt Q9HBE4 32-152) (ligand) | 25 | 60000 | – | – | –
36 | IL-21_S109K (from UniProt Q9HBE4 32-152) (ligand) | – | 40000 | 26 | 43 | –
37 | IL-21_S109R (from UniProt Q9HBE4 32-152) (ligand) | – | – | – | – | Kd [5]: 36 nM; Kd [6]: 6000 nM; Kd [7]: 15 nM
38 | IL-21_S142H (from UniProt Q9HBE4 32-152) (ligand) | – | 11000 | – | 51 | –
39 | IL-21_T89L (from UniProt Q9HBE4 32-152) (ligand) | 140 | 16000 | 110 | 1000 | –
40 | IL-21_V53T (from UniProt Q9HBE4 32-152) (ligand) | – | 30000 | – | 9600 | –
41 | IL-21_V57R (from UniProt Q9HBE4 32-152) (ligand) | 50 | 14000 | 16 | 50 | –
42 | IL-21_V98H (from UniProt Q9HBE4 32-152) (ligand) | – | 8800 | 26 | 170 | –
43 | IL-21_W73L (from UniProt Q9HBE4 32-152) (ligand) | – | 33000 | 200 | 5200 | –
44 | IL-21_W73Q (from UniProt Q9HBE4 32-152) (ligand) | 120 | 15000 | 88 | – | –
45 | IL-21_W73Y (from UniProt Q9HBE4 32-152) (ligand) | – | – | – | – | Kd [5]: 190 nM; Kd [7]: 85 nM
46 | IL-21_human_D44P Fc fusion protein (from UniProt Q9HBE4 30-162) | – | – | – | – | Kd [8]: 1360 nM
47 | IL-21_human_F76M Fc fusion protein (from UniProt Q9HBE4 30-162) | – | – | – | – | Kd [8]: 11.8 nM
48 | IL-21_human_F79P Fc fusion protein (from UniProt Q9HBE4 30-162) | – | – | – | – | Kd [8]: 11.1 nM
49 | IL-21_human_I45G Fc fusion protein (from UniProt Q9HBE4 30-162) | – | – | – | – | Kd [8]: 12 nM
50 | IL-21_human_P108G Fc fusion protein (from UniProt Q9HBE4 30-162) | – | – | – | – | Kd [8]: 29 nM
51 | IL-21_human_R38K Fc fusion protein (from UniProt Q9HBE4 30-162) | – | – | – | – | Kd [8]: 313 nM
52 | IL-21_human_V53N Fc fusion protein (from UniProt Q9HBE4 30-162) | – | – | – | – | Kd [8]: 87.1 nM
53 | IL-21_human_V53T Fc fusion protein (from UniProt Q9HBE4 30-162) | – | – | – | – | Kd [8]: 7.86 nM
54 | IL-21_human_W73V Fc fusion protein (from UniProt Q9HBE4 30-162) | – | – | – | – | Kd [8]: 6.3 nM
